Data taken from US20240141061A1, “NOVEL ANTIBODY AGAINST CD55 AND USE THEREOF” (SG MEDICAL INC, priority 2021, published 2024).

What was measured:
[1] = target: T1, recombinant human CD55 (R&D Systems 2009-CD/CF) (human, UniProt P08174 35-353); test: phage ELISA, recombinant human CD55 coated, anti-M13-HRP; 4-1H phage clone as control
T1 construct: Bought recombinant protein coated on ELISA plates; also called decay-accelerating factor; DAF
T1 sequence (looked up): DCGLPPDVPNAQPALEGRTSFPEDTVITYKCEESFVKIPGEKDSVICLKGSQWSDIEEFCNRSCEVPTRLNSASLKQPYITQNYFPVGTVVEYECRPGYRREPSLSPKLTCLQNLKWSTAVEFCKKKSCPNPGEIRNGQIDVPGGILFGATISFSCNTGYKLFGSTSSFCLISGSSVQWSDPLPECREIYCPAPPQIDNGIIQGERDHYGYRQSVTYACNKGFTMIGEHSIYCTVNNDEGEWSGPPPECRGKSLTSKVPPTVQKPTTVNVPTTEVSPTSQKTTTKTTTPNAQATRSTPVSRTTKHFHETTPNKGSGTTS
Protocol: 192 clones screened from the products of the third and fourth biopanning were incubated overnight at 37° C. on a 96-deep well plate after adding 100 μg/mL carbenicillin, 70 μg/mL kanamycin and VCSM13 helper phage to induce the proliferation of phages wherein the antibody was expressed. After centrifuging the culture, the supernatant containing the phage was incubated at 37° C. for 2 hours on an ELISA plate coated with recombinant human CD55 (R&D Systems 2009-CD/CF, USA). Then, the antibody binding to CD55 was identified by ELISA using HRP-conjugated anti-M13 antibody (Merck, USA) as a secondary antibody.

[2] = target: T1, recombinant human CD55 (R&D Systems …); test: indirect ELISA, recombinant human CD55 coated, anti-human Fc-HRP
Protocol: The binding ability of the G4-1H monoclonal antibody prepared in Example 2 for CD55 was investigated by indirect ELISA. For the indirect ELISA, recombinant human CD55 (R&D Systems, USA) diluted to 1 μg/mL in 50 μL of PBS was added to a 96-well immunoplate (Corning, USA) and then adsorbed by keeping at 4° C. overnight. After incubation for 1 hour at room temperature in a buffer containing 3% bovine serum albumin (Millipore, USA), followed by washing with a buffer containing 0.5% Tween 20 (Amresco, USA) three times, 50 μL of the serially diluted antibody (0.0001, 0.0003, 0.001, 0.003, 0.01, 0.03, 0.1, 0.3, 1, 3 and 10 nM) was treated per well. After incubation at room temperature for 2 hours for antibody-antigen binding, the antibody-antigen complex was washed three times with a buffer containing 0.5% Tween 20 (Amresco, USA). After treating with 50 μL of anti-human immunoglobulin Fc-HRP antibody (Jackson Immunoresearch, USA) diluted to 1:3,000 per well, followed by incubation at room temperature for 1 hour and washing three times with a buffer containing 0.5% Tween 20 (Amresco, USA), color development was conducted for 10 minutes by adding 50 μL of 3,3′,5,5′-tetramethylbenzidine (TMB) (ThermoFisher Scientific, USA).

B1: 3R-2-1H scFv clone displayed on phage (scFv, V domains shown)
VH: EVQLVESGGGLVQPGGSLRLSCVARGFTFSDRGMAWVRQAPGKGLEWVSGISSSGRYTYYAPAVKGRTTISRDNSKNTLYLQMNSLRAEDTAVYYCAKNAVAGGWHAAYIDAWGQGTTVTVSS
VL: SYELTQPPSVSVSPGQTASITCSGGGGSYGWYQQKPGQSPVTVIYWNDKRPSGIPERFSGSKSGNTATLTISGTQAMDEADYYCGGWDSSTYAIFGGGTKLTVL
notes: In the screening ELISA it stood as scFv on phage (pComb3x)
binding result [1]: binds

B2: EP-1F scFv clone displayed on phage (scFv, V domains shown)
VH: EVQLAESGGGLVQPGGSLRLSCAASGFTFSDRGMAWVRQAPGKGLEWVSGISSSGRYTYYAPAVKGRATISRDNSKNTLYLQMNSLRAEDTAVYYCAKNAVAGGWHAAYIDAWGQGTTVTVSS
VL: SYELTQPPSVSVSPGQTASITCSGGGGSYGWYQQKPGQSPVTVIYWNDKRPSGIPERFSGSKSGNTATLTISGTQAMDEADYYCGGWDSSTYAIFGGGTKLTVL
notes: as for B1
binding result [1]: binds

B3: G4-1H (antibody, V domains shown)
VH: EVQLVESGGGLVQPGGSLRLSCAASGFTFSDRGMAWVRQAPGKGLEWVSGISSSGRYTYYAPAVKGRATISRDNSKNTLYLQMNSLRAEDTAVYYCAKNAGAGGWHAAYIDAWGQGTTVTVSS
VL: SYELTQPPSVSVSPGQTASITCSGGGGSYGWYQQKPGQSPVTVIYWNDKRPSGIPERFSGSKSGNTATLTISGTQAMDEADYYCGGWDSSTYAIFGGGTKLTVL
notes: Tested as complete antibody (full-length IgG); also called humanized 4-1H antibody; G4-1H monoclonal antibody
binding result [2]: binds

B4: EP-9B scFv clone displayed on phage (scFv, V domains shown)
VH: EVQLVESGGGLVQPGGSLRLSCAASGFTFSDRGMVWVRQSPGKGLEWVSGISSSGRYTYYAPAVKGRATISRDNSKNTLYLQMNNLRAEDTAVYYCAKNAVAGGWHAAYIDAWGQGTTVTVSS
VL: SYELTQPPSVSVSPGQTASITCSGGGGSYGWYQQKPGQSPVTVIYWNDKRPSGIPERFSGSKSGNTATLTISGTQAMDEADYYCGGWDSSTYAIFGGGTKLTVL
notes: as for B1
binding result [1]: binds
